According to patent publication US7786083B2, “Metastin derivatives and use thereof” (Takeda Pharmaceutical Company Limited, priority 2006, dated 2010):
Each block holds one binder with its values, some of them ahead of it. *1 amine or outer side, *2 acyl side, *3 side chain or, on linkers, in order; H or OH if unused. [ ]: non-standard residue; d: D form. Ser(Me) = O-methylserine, COC[C@H](N[*:1])C(=O)[*:2]; Phe(4-Me) = Cc1ccc(C[C@H](N)C(=O)O)cc1; Phe(2-Me) = Cc1ccccc1C[C@H](N)C(=O)O; Arg(Me) = CNC(=N)NCCC[C@H](N)C(=O)O; Dap(CONH2) = NC(=O)NC[C@H](N)C(=O)O; Ala(cPr) = N[C@@H](CC1CC1)C(=O)O; Hyp = O=C(O)[C@@H]1C[C@@H](O)CN1; αMeF = C[C@](N)(Cc1ccccc1)C(=O)O; Aad = N[C@@H](CCCC(=O)O)C(=O)O; Cha = N[C@@H](CC1CCCCC1)C(=O)O; Nva = CCC[C@H](N)C(=O)O; Abu = CC[C@H](N)C(=O)O; Aib = CC(C)(N)C(=O)O

Molecular target: metastin receptor (OT7T175) stably expressed on CHO/dhfr- cells (human or rat, not given)
Experiment: cell-based or functional assay

Specific Activity (EC50 of test compound based on EC50 of Metastin (45-54)); agonist activity, intracellular calcium ion level, FLIPR (ratio to Metastin (45-54)): 0.8
B1: des(1)-Ac-[D-Tyr2,Hyp3,Thr5,Ser(Me)8,Arg(Me)9,Trp10]MS10 (peptide)
peptide: Ac-[dY][Hyp]NTFG[Ser(Me)][Arg(Me)]W-NH2

Specific Activity (EC50 of test compound based on EC50 of Metastin (45-54)); agonist activity, intracellular calcium ion level, FLIPR (ratio to Metastin (45-54)): 0.8
B4: des(1)-Ac-[D-Tyr2,Hyp3,Thr5,Ala(cPr)8,Arg(Me)9,Trp10]MS10 (peptide)
peptide: Ac-[dY][Hyp]NTFG[Ala(cPr)][Arg(Me)]W-NH2

Specific Activity (EC50 of test compound based on EC50 of Metastin (45-54)); agonist activity, intracellular calcium ion level, FLIPR (ratio to Metastin (45-54)): 1.4
B6: des(1)-Ac-[D-Tyr2,Hyp3,Thr5,Phe6Ψ((R)CHOH-(E)CH═)Gly7,Arg(Me)9,Trp10]MS10 (peptide)
peptide: Ac-[dY][Hyp]NTFGL[Arg(Me)]W-NH2
modifications: also: Phe5-Gly6 -CONH- replaced by (R)-CH(OH)-(E)CH= to Gly α carbon

Specific Activity (EC50 of test compound based on EC50 of Metastin (45-54)); agonist activity, intracellular calcium ion level, FLIPR (ratio to Metastin (45-54)): 0.7
B9: des(1)-Ac-[D-Tyr2,Hyp3,Thr5,Phe(2Me)6,Arg(Me)9,Trp10]MS10 (peptide)
peptide: Ac-[dY][Hyp]NT[Phe(2-Me)]GL[Arg(Me)]W-NH2

Specific Activity (EC50 of test compound based on EC50 of Metastin (45-54)); agonist activity, intracellular calcium ion level, FLIPR (ratio to Metastin (45-54)): 3.8
B11: des(1)-Ac-[D-Tyr2,Hyp3,Thr5,αMePhe6,Arg(Me)9,Trp10]MS10 (peptide)
peptide: Ac-[dY][Hyp]NT[αMeF]GL[Arg(Me)]W-NH2
SMILES: CNC(=N)NCCC[C@H](NC(=O)[C@H](CC(C)C)NC(=O)CNC(=O)[C@](C)(Cc1ccccc1)NC(=O)[C@@H](NC(=O)[C@H](CC(N)=O)NC(=O)[C@@H]1C[C@@H](O)CN1C(=O)[C@@H](Cc1ccc(O)cc1)NC(C)=O)[C@@H](C)O)C(=O)N[C@@H](Cc1c[nH]c2ccccc12)C(N)=O

Specific Activity (EC50 of test compound based on EC50 of Metastin (45-54)); agonist activity, intracellular calcium ion level, FLIPR (ratio to Metastin (45-54)): 1.2
B15: des(1)-Ac-[D-Tyr2,Hyp3,Thr5,Phe6Ψ((S)CHOH-CH2)Gly7,Arg(Me)9,Trp10]MS10 (peptide)
peptide: Ac-[dY][Hyp]NTFGL[Arg(Me)]W-NH2
modifications: also: Phe5-Gly6 amide bond replaced by -CH(OH)-CH2- ((S)-CHOH)

Specific Activity (EC50 of test compound based on EC50 of Metastin (45-54)); agonist activity, intracellular calcium ion level, FLIPR (ratio to Metastin (45-54)): 1
B16: des(1)-Ac-[D-Tyr2,Hyp3,Thr5,Abu7,Arg(Me)9,Trp10]MS10 (peptide)
peptide: Ac-[dY][Hyp]NTF[Abu]L[Arg(Me)]W-NH2

Second part, the binder before the results:

B2: des(1)-Ac-[D-Tyr2,Hyp3,Thr5,Phe(4Me)6,Arg(Me)9,Trp10]MS10 (peptide)
peptide: Ac-[dY][Hyp]NT[Phe(4-Me)]GL[Arg(Me)]W-NH2
Specific Activity (EC50 of test compound based on EC50 of Metastin (45-54)); agonist activity, intracellular calcium ion level, FLIPR (ratio to Metastin (45-54)): 0.9

B3: des(1)-Ac-[D-Tyr2,Aib3,Thr5,Cha6,Ala(cPr)8,Arg(Me)9,Trp10]MS10 (peptide)
peptide: Ac-[dY][Aib]NT[Cha]G[Ala(cPr)][Arg(Me)]W-NH2
Specific Activity (EC50 of test compound based on EC50 of Metastin (45-54)); agonist activity, intracellular calcium ion level, FLIPR (ratio to Metastin (45-54)): 0.6

B5: des(1)-Ac-[D-Tyr2,Hyp3,Thr5,Ser7,Arg(Me)9,Trp10]MS10 (peptide)
peptide: Ac-[dY][Hyp]NTFSL[Arg(Me)]W-NH2
Specific Activity (EC50 of test compound based on EC50 of Metastin (45-54)); agonist activity, intracellular calcium ion level, FLIPR (ratio to Metastin (45-54)): 0.6

B7: des(1)-Ac-[D-Tyr2,Hyp3,Thr5,Phe6Ψ((R)CHOH-CH2)Gly7,Arg(Me)9,Trp10]MS10 (peptide)
peptide: Ac-[dY][Hyp]NTFGL[Arg(Me)]W-NH2
modifications: also: Phe5-Gly6 -CONH- replaced by (R)-CH(OH)-CH2-
Specific Activity (EC50 of test compound based on EC50 of Metastin (45-54)); agonist activity, intracellular calcium ion level, FLIPR (ratio to Metastin (45-54)): 0.8

B8: des(1)-Ac-[D-Tyr2,Glu3,Alb4,Thr5,Gly7Ψ((E)CH═CH)Leu8,Arg(Me)9,Trp10]MS10 (peptide)
peptide: Ac-[dY]E[Dap(CONH2)]TFGL[Arg(Me)]W-NH2
modifications: also: Gly6-Leu7 -CONH- replaced by (E) type alkene
Specific Activity (EC50 of test compound based on EC50 of Metastin (45-54)); agonist activity, intracellular calcium ion level, FLIPR (ratio to Metastin (45-54)): 0.5

B10: des(1)-Ac-[D-Tyr2,Hyp3,Gln4,Thr5,Cha6,Gly7Ψ((E)CH═CH)Leu8,Arg(Me)9,Trp10]MS10 (peptide)
peptide: Ac-[dY][Hyp]QT[Cha]GL[Arg(Me)]W-NH2
modifications: also: Gly6-Leu7 -CONH- replaced by (E)-CH=CH-
Specific Activity (EC50 of test compound based on EC50 of Metastin (45-54)); agonist activity, intracellular calcium ion level, FLIPR (ratio to Metastin (45-54)): 1.4

B12: des(1)-Ac-[D-Tyr2,Lys3,Thr5,Cha6,Ala(cPr)8,Arg(Me)9,Trp10]MS10 (peptide)
peptide: Ac-[dY]KNT[Cha]G[Ala(cPr)][Arg(Me)]W-NH2
modifications: also: classed as cyclised or stapled
Specific Activity (EC50 of test compound based on EC50 of Metastin (45-54)); agonist activity, intracellular calcium ion level, FLIPR (ratio to Metastin (45-54)): 0.7

B13: des(1)-Ac-[D-Tyr2,Hyp3,Alb4,Thr5,Arg(Me)9,Trp10]MS10 (peptide)
peptide: Ac-[dY][Hyp][Dap(CONH2)]TFGL[Arg(Me)]W-NH2
Specific Activity (EC50 of test compound based on EC50 of Metastin (45-54)); agonist activity, intracellular calcium ion level, FLIPR (ratio to Metastin (45-54)): 0.5

B14: des(1)-Ac-[D-Tyr2,Aad3,Thr5,Cha6,Ala(cPr)8,Arg(Me)9,Trp10]MS10 (peptide)
peptide: Ac-[dY][Aad]NT[Cha]G[Ala(cPr)][Arg(Me)]W-NH2
Specific Activity (EC50 of test compound based on EC50 of Metastin (45-54)); agonist activity, intracellular calcium ion level, FLIPR (ratio to Metastin (45-54)): 1.1

B17: des(1)-Ac-[D-Tyr2,Hyp3,Thr5,Nva8,Arg(Me)9,Trp10]MS10 (peptide)
peptide: Ac-[dY][Hyp]NTFG[Nva][Arg(Me)]W-NH2
Specific Activity (EC50 of test compound based on EC50 of Metastin (45-54)); agonist activity, intracellular calcium ion level, FLIPR (ratio to Metastin (45-54)): 0.7
